We go through four molecules from patent US20210347873A1 (SHANGHAI PHARMAEXPLORER, published 2021).

For one assay, the target named is mouse BLyS protein (mouse, UniProt Q9WU72 69-309). The assay is described as follows: cell-based or functional assay.
In assay [1] the target is T1, human BLyS (full length, arginine to histidine at position 132) on CHO-K1 cells (human, UniProt Q9Y275 1-285).
T1 construct: also called hBLyS; CHO-K1 hBLyS
The assay is described as follows: flow cytometry, CHO-K1 hBLyS cells, antibody 13.3 nM.

Assay [2] concerns the target T1, human BLyS (full length, arginine to …). The assay is described as follows: flow cytometry, CHO-K1 hBLyS cells, antibody 66.7 nM. Background: In flow cytometry, cells or beads pass a laser one at a time.
For assay [3] the target is unchanged. The assay is described as follows: flow cytometry, CHO-K1 hBLyS cells, antibody 0.107 nM.
The target is the same in assay [4]. The assay is described as follows: flow cytometry, CHO-K1 hBLyS cells, antibody 0.0213 nM.
For assay [5] the target is unchanged. The assay is described as follows: flow cytometry, CHO-K1 hBLyS cells, antibody 0.00427 nM.
The target in assay [6] is T2, cynomolgus BLyS (full length, arginine to histidine at position 132) on CHO-K1 cells (cynomolgus, UniProt Q9Y275 1-285 (human entry)).
T2 construct: also called cyno BLyS; CHO-K1 cynoBLyS
T2 chain: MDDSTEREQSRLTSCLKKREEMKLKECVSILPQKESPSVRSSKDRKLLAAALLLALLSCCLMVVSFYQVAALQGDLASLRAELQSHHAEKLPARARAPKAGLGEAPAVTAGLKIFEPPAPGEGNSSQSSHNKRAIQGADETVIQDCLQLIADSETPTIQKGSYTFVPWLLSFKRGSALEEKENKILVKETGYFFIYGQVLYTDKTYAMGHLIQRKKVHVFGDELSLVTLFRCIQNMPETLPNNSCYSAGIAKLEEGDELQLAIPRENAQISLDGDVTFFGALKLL
Put plainly: flow cytometry, CHO-K1 cynoBLyS cells, antibody 2.67 nM.

Assay [7] addresses T2, cynomolgus BLyS (full length, arginine …). Put plainly: flow cytometry, CHO-K1 cynoBLyS cells, antibody 0.00427 nM.

Where a chain is given by its changes, count along the chain named.

T1 sequence (Q9Y275 whole entry R130H): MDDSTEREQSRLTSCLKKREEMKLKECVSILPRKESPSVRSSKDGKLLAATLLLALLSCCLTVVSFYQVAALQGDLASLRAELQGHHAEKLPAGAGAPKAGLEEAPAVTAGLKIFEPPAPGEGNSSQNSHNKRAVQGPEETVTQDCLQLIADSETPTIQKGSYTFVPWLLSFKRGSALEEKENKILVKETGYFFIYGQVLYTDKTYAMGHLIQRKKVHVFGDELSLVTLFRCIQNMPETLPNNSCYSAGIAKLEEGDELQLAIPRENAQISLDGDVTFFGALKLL
mouse BLyS protein, sequence (Q9WU72 69-309): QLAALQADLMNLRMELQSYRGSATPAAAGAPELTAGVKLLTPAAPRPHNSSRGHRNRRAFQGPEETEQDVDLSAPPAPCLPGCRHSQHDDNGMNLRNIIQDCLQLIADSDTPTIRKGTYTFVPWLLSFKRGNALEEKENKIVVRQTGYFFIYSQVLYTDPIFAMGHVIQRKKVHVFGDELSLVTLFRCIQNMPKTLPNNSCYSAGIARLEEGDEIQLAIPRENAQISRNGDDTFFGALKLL

B1: 2-1G11 (antibody, V domains shown)
VH: EVQLVESRGGVVQPGRSLRLSCAASGFTFSSYGMHWVRQAPGKGLEWVAVISYDGSNKYYADSVKGRFTISRDNSKNTLYLQMNSLRAEDAAVYYCARDRVDILTGYSIYGMDVWGQGTTVTVSS
VL: EIVMTQSPATLSLSPGERATLSCRASQSVSSYLAWYQQKPGQAPRLLIYDASKRATGIPARFSGSGSGTDFTLTISSLEPEDFAVYYCQQRSNWPLTFGGGTKVEIK
notes: From a human naive scFv phage library; also called human BLyS antibody 2-1G11
Take B1: in the assay with mouse BLyS protein, the “mouse B lymphocyte proliferation (OD450 nm), antibody 0 nM” value amounted to 2320 OD450 nm; the “mouse B lymphocyte proliferation (OD450 nm), antibody 0.000256 nM” value turned out to be 2450 OD450 nm; the “mouse B lymphocyte proliferation (OD450 nm), antibody 0.00128 nM” value turned out to be 2560 OD450 nm; the “mouse B lymphocyte proliferation (OD450 nm), antibody 0.0064 nM” value is 2610 OD450 nm. In the assay with mouse BLyS protein, the “mouse B lymphocyte proliferation (OD450 nm), antibody 0.032 nM” value stood at 2470 OD450 nm; the “mouse B lymphocyte proliferation (OD450 nm), antibody 0.16 nM” value came to 2750 OD450 nm; the “mouse B lymphocyte proliferation (OD450 nm), antibody 0.8 nM” value amounted to 2820 OD450 nm; the “mouse B lymphocyte proliferation (OD450 nm), antibody 4 nM” value is 2460 OD450 nm. For the same molecule, in the assay with mouse BLyS protein, the “mouse B lymphocyte proliferation (OD450 nm), antibody 20 nM” value stood at 2680 OD450 nm and the “mouse B lymphocyte proliferation (OD450 nm), antibody 100 nM” value amounted to 2490 OD450 nm. Further, the MFI in assay [1] turned out to be 633 MFI. The MFI in assay [2] was 645 MFI. This molecule gave an MFI in assay [3] of 403 MFI. In addition, the MFI in assay [4] is 180 MFI. This molecule also showed an MFI in assay [5] of 107 MFI. For the same molecule, the MFI in assay [6] was found to be 1480 MFI. Moreover, in assay [7], the MFI worked out at 176 MFI.

B2: L9G7 (antibody, V domains shown)
VH: QIQLVQSGAEVKKPGASVKVSCKASGYTFTSYGISWVRQAPGQGLEWMGWISAYNGNTNYAQKLQGRVTMTTDTSTSTAYMELRSLRSDDTAVYYCARTYYDILTGYYYYGMDVWGQGTTVTVSS
VL: B1 VL with M4L, A9G, A25T, S30D, S31T, K53N
notes: From a human naive scFv phage library; also called human BLyS antibody L9G7
For B2, in the assay with mouse BLyS protein, the “mouse B lymphocyte proliferation (OD450 nm), antibody 0 nM” value is 2100 OD450 nm; the “mouse B lymphocyte proliferation (OD450 nm), antibody 0.000256 nM” value stood at 2430 OD450 nm; the “mouse B lymphocyte proliferation (OD450 nm), antibody 0.00128 nM” value was 2480 OD450 nm; the “mouse B lymphocyte proliferation (OD450 nm), antibody 0.0064 nM” value was determined as 2460 OD450 nm. Moreover, in the assay with mouse BLyS protein, the “mouse B lymphocyte proliferation (OD450 nm), antibody 0.032 nM” value worked out at 2340 OD450 nm; the “mouse B lymphocyte proliferation (OD450 nm), antibody 0.16 nM” value worked out at 2260 OD450 nm; the “mouse B lymphocyte proliferation (OD450 nm), antibody 0.8 nM” value came to 640 OD450 nm; the “mouse B lymphocyte proliferation (OD450 nm), antibody 4 nM” value turned out to be 308 OD450 nm. In the assay with mouse BLyS protein, the “mouse B lymphocyte proliferation (OD450 nm), antibody 20 nM” value is 243 OD450 nm and the “mouse B lymphocyte proliferation (OD450 nm), antibody 100 nM” value turned out to be 221 OD450 nm. In assay [1], this molecule returned an MFI of 630 MFI. Besides, the MFI in assay [2] came out at 697 MFI. This molecule also came in with an MFI in assay [3] of 226 MFI. This molecule showed an MFI in assay [4] of 93 MFI. The MFI in assay [5] stood at 51.6 MFI. In assay [6], this molecule came in with an MFI of 1280 MFI. In assay [7], this molecule gave an MFI of 63.5 MFI.

B3: L1D12 (antibody, V domains shown)
VH: QVQLVQSGGGLVQPGGSLRLSCAASGFTVSSNYMSWVRQAPGKGLEWVSVIYSGGSTYYADSVKGRFTISRDNSKNTLYLQMNSLRAEDTAVYYCARGFHDILTGYGMDVWGQGTTVTVSS
VL: SSELTQDPAVSVALGQTVRITCQGDSLRNYYAGWYQQKPGQAPVLVIYGKNNRPSGIPDRFSGSSSGNTASLTITGTQAEDEADYYCSSRDNSGTHLVEFGGGTKLTVL
notes: From a human naive scFv phage library; also called human BLyS antibody L1D12; LID12
For the molecule B3, in the assay with mouse BLyS protein, the “mouse B lymphocyte proliferation (OD450 nm), antibody 0 nM” value is 2340 OD450 nm; the “mouse B lymphocyte proliferation (OD450 nm), antibody 0.000256 nM” value stood at 2450 OD450 nm; the “mouse B lymphocyte proliferation (OD450 nm), antibody 0.00128 nM” value stood at 2610 OD450 nm; the “mouse B lymphocyte proliferation (OD450 nm), antibody 0.0064 nM” value came to 2500 OD450 nm. In the assay with mouse BLyS protein, the “mouse B lymphocyte proliferation (OD450 nm), antibody 0.032 nM” value was found to be 2460 OD450 nm; the “mouse B lymphocyte proliferation (OD450 nm), antibody 0.16 nM” value was 2520 OD450 nm; the “mouse B lymphocyte proliferation (OD450 nm), antibody 0.8 nM” value turned out to be 2410 OD450 nm; the “mouse B lymphocyte proliferation (OD450 nm), antibody 4 nM” value amounted to 2560 OD450 nm. For the same molecule, in the assay with mouse BLyS protein, the “mouse B lymphocyte proliferation (OD450 nm), antibody 20 nM” value amounted to 2460 OD450 nm and the “mouse B lymphocyte proliferation (OD450 nm), antibody 100 nM” value came to 2450 OD450 nm. Further, the MFI in assay [1] came out at 522 MFI. Moreover, in assay [2], the MFI came to 550 MFI. Also, the MFI in assay [3] was determined as 205 MFI. The molecule also came in with an MFI in assay [4] of 89.5 MFI. This molecule yielded an MFI in assay [5] of 54.4 MFI. Further, in assay [6], the MFI is 1170 MFI. In addition, in assay [7], the MFI was 66.7 MFI.

B4: 97A3C2H4 (antibody, V domains shown)
VH: EVKLVESGGGLVQPGGSLKLSCAASGFTFSTYTMSWVRQTPEKRLEWVAYISYGGGSTSYPDTVKGRFTISRDNAKNTLYLQMSSLKSEDTAIYYCTRHVTVVENSMDYWGQGTSVTVSS
VL: DILLTQSPDILSVSPGERVSFSCRASQSIGTSIHWYQQRTNGSPRLLIKYVSESFSGTPSRFSGSGSGTAFTLTINSVESEDIADYYCQQTHSWPWTFGGGTKLEIK
notes: Mouse hybridoma monoclonal antibody purified on Protein G
In the case of B4, in the assay with mouse BLyS protein, the “mouse B lymphocyte proliferation (OD450 nm), antibody 0 nM” value was found to be 2160 OD450 nm; the “mouse B lymphocyte proliferation (OD450 nm), antibody 0.000256 nM” value turned out to be 2210 OD450 nm; the “mouse B lymphocyte proliferation (OD450 nm), antibody 0.00128 nM” value stood at 2200 OD450 nm; the “mouse B lymphocyte proliferation (OD450 nm), antibody 0.0064 nM” value amounted to 2250 OD450 nm. Further, in the assay with mouse BLyS protein, the “mouse B lymphocyte proliferation (OD450 nm), antibody 0.032 nM” value turned out to be 2370 OD450 nm; the “mouse B lymphocyte proliferation (OD450 nm), antibody 0.16 nM” value was 2300 OD450 nm; the “mouse B lymphocyte proliferation (OD450 nm), antibody 0.8 nM” value is 2410 OD450 nm; the “mouse B lymphocyte proliferation (OD450 nm), antibody 4 nM” value was found to be 2430 OD450 nm. Also, in the assay with mouse BLyS protein, the “mouse B lymphocyte proliferation (OD450 nm), antibody 20 nM” value was 2400 OD450 nm and the “mouse B lymphocyte proliferation (OD450 nm), antibody 100 nM” value worked out at 2320 OD450 nm. Moreover, the MFI in assay [1] was 460 MFI. This molecule yielded an MFI in assay [2] of 525 MFI. This molecule showed an MFI in assay [3] of 158 MFI. The MFI in assay [4] came to 69.8 MFI. The MFI in assay [5] is 44 MFI. The MFI in assay [6] worked out at 956 MFI. Also, in assay [7], the MFI turned out to be 44.3 MFI.
